B1: ABSCISIC ACID-… 5-like protein 7 (Arabidopsis thaliana (Mouse-ear cress)), Q9M7Q2 (parent)
chain: MGTHINFNNLGGGGHPGGEGSSNQMKPTGSVMPLARQSSVYSLTFDELQNTLGGPGKDFGSMNMDELLKSIWTAEEAQAMAMTSAPAATAVAQPGAGIPPPGGNLQRQGSLTLPRTISQKTVDEVWKCLITKDGNMEGSSGGGGESNVPPGRQQTLGEMTLEEFLFRAGVVREDNCVQQMGQVNGNNNNGFYGNSTAAGGLGFGFGQPNQNSITFNGTNDSMILNQPPGLGLKMGGTMQQQQQQQQLLQQQQQQMQQLNQPHPQQRLPQTIFPKQANVAFSAPVNITNKGFAGAANNSINNNNGLASYGGTGVTVAATSPGTSSAENNSLSPVPYVLNRGRRSNTGLEKVIERRQRRMIKNRESAARSRARKQAYTLELEAEIEKLKKTNQELQKKQAEMVEMQKNELKETSKRPWGSKRQCLRRTLTGPW
partner: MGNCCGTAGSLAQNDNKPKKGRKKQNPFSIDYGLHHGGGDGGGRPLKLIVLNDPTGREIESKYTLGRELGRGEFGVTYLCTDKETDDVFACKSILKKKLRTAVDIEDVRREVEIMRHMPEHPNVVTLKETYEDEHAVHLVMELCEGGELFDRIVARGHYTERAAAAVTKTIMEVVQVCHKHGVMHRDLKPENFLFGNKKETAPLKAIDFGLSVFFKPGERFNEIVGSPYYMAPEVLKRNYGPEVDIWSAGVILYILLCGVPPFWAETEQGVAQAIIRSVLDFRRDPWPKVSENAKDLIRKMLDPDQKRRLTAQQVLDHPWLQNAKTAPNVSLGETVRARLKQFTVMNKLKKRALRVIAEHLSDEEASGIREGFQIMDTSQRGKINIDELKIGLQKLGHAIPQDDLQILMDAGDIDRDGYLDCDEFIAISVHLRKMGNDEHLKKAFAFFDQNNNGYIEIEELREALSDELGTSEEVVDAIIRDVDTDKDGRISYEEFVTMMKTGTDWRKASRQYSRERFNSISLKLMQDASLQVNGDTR

Variants of: B1
Details: with cdpkw_arath CPK32, Q6NLQ6

Row | Variant | effect of a mutation on the interaction
1 | MGTHINFNNLGGGGHPGGEGSSNQMKPTGSVMPLARQSSVYSLTFDELQNTLGGPGKDFGSMNMDELLKSIWTAEEAQAMAMTSAPAATAVAQPGAGIPPPGGNLQRQGALTLPRTISQKTVDEVWKCLITKDGNMEGSSGGGGESNVPPGRQQTLGEMTLEEFLFRAGVVREDNCVQQMGQVNGNNNNGFYGNSTAAGGLGFGFGQPNQNSITFNGTNDSMILNQPPGLGLKMGGTMQQQQQQQQLLQQQQQQMQQLNQPHPQQRLPQTIFPKQANVAFSAPVNITNKGFAGAANNSINNNNGLASYGGTGVTVAATSPGTSSAENNSLSPVPYVLNRGRRSNTGLEKVIERRQRRMIKNRESAARSRARKQAYTLELEAEIEKLKKTNQELQKKQAEMVEMQKNELKETSKRPWGSKRQCLRRTLTGPW [S110A] | disrupting interaction

Variants of: B1
Details: with cdpkw_arath CPK32, Q6NLQ6
Remark: another data set of the same source

Row | Variant | effect of a mutation on the interaction
2 | MGTHINFNNLGGGGHPGGEGSSNQMKPTGSVMPLARQSSVYSLTFDELQNTLGGPGKDFGSMNMDELLKSIWTAEEAQAMAMTSAPAATAVAQPGAGIPPPGGNLQRQGALTLPRTISQKTVDEVWKCLITKDGNMEGSSGGGGESNVPPGRQQTLGEMTLEEFLFRAGVVREDNCVQQMGQVNGNNNNGFYGNSTAAGGLGFGFGQPNQNSITFNGTNDSMILNQPPGLGLKMGGTMQQQQQQQQLLQQQQQQMQQLNQPHPQQRLPQTIFPKQANVAFSAPVNITNKGFAGAANNSINNNNGLASYGGTGVTVAATSPGTSSAENNSLSPVPYVLNRGRRSNTGLEKVIERRQRRMIKNRESAARSRARKQAYTLELEAEIEKLKKTNQELQKKQAEMVEMQKNELKETSKRPWGSKRQCLRRTLTGPW [S110A] | decreasing interaction
